One assay relates to HUVECs. In words: Quantitative RT-PCR of TARS mRNA. The format is cell-based, human. The settings on record: HUVECs exposed to 50 ng/ml VEGF or TNF-α. The protocol:
Quantitative RT-PCR—Total RNA was extracted from cells using the RNeasy column protocol and cDNA was generated using an Omniscript reverse transcriptase assay according to the manufacturer's instructions (Qiagen, Frederick, Md.). Primers and probes for TARS and β2-microglobulin were Assays-on-Demand (Applied Biosystems, [Life Technologies, Carlsbad, Calif.]). RT-qPCR was performed using an ABI prism 7700 Sequence Detection System (Applied Biosystems). The relative quantity of mRNA level was determined using the comparative CT (ΔΔCT) method using β2-microglobulin to normalize mRNA level (Cassavaugh, Hale et al. 2011).

Assay [1] has as its system chorioallantoic membrane (CAM). Nature of the assay: Chick chorioallantoic membrane (CAM) assay. Format: in vivo, chicken. The settings on record: for vessel formation / vascularization on the CAM after applied protein: purified protein applied daily to sponge, scored over 72 h. The protocol:
Chick Chorioallantoic Membrane Assay-Fertilized chicken eggs (Sunrise Farms, Catskill, N.Y.) day 1-2 post-laying were incubated in a humidified incubator at 37° C. for 72 h. Cleaned eggs were cracked and plated in a sterile 10 cm^2 tissue culture-treated dish and incubated at 37° C. for another 7 days. On developmental day 10, 1 mm^3 sterile gelatin sponge pieces (Surgifoam®; Johnson & Johnson Wound Management, Somerville, N.J.) were placed within the outer one-third of the membrane between large vessels. 40 μg/ml human bFGF and 2 μg/mL human VEGF were used as pro-angiogenic control compounds; 100 μg/mL retinoic acid (Sigma-Aldrich, St. Louis, Mo.) diluted in phosphate-buffered saline (PBS) was used as an angiostatic control. All compounds were applied in 10 μl to the CAM every 24 h for 72 h. Images were taken using a Leica MZ6 stereomicroscope every 24 h. Compounds were scored according to a modified version of Intensity Scoring as previously described (Ribatti, Nico et al. 2006). Briefly, each experimental condition was given a blinded score from 0-5 based on the change in the extent of vessel convergence and formation in proximity to the sponge from day 0 to day 3. Total score is averaged individual experimental condition scores from at least 15 replicates.
Fertilized chicken embryos were cultured ex-ova and, starting at developmental day 10, agents were applied daily to gelfoam sponges on the CAM. Images were recorded daily over 72 h and scored blindly according to a modified version Intensity Scoring as previously described (Ribatti, Nico et al. 2006). Additional details regarding methods are provided in the Methods and Materials section of Example 1.

Assay [2] concerns human TARS. In words: Steady state aminoacylation assay. The format is biochemical. The conditions noted are these: purified protein. As to the method: Steady State Aminoacylation Assay-The aminoacylation activities of the TARS constructs were determined using modifications to established procedures ([…] et al 2008). Briefly, reaction mixtures consisted of 20 mM Tris-HCl pH 8.0, 100 mM KCl, 10 mM MgCl2, 1 mM dithiothreitol, 2 mM ATP, 2.5 U pyrophosphatase (Roche), 80 μM threonine, 20 μM [14C]-threonine, and 5 μM of E. coli or human […]. Reactions were initiated with the addition of 0.25-0.75 μM TARS and run at 37° C. Aliquots were taken at varying time points and spotted onto Whatmann 3MM paper filters pre-soaked in 5% trichloroacetic acid (TCA). Upon completion, the filters were washed 3 times in excess TCA, once in 95% ethanol, and dried under a heating lamp. The formation of […] was detected by scintillation counter and the activity determined by linear regression of […] formed per active site per unit time.

In assay [3] the test system is human TARS. Nature of the assay: Ap4A formation assay. The format is biochemical. The conditions noted are these: 5 μM enzyme, 2 mM threonine, 2 mM ATP. The protocol: TARS purification and active site determination were performed as previously described (Williams, Mirando et al., 2013). TARS non-canonical catalytic activities were characterized using modifications from published methods (Guo, Chong et al. 2009). For Ap4A reactions 5 μM of wildtype TARS or R442A TARS were incubated for 10 minutes on ice with 2 mM threonine, and 10 μM BC194 or borrelidin as indicated in FIG. 17C. Reactions were initiated using 2 mM ATP with trace amounts of [α-^32P]-ATP as label. At specific time points aliquots were quenched in 3 volumes of 0.1% SDS, 400 mM sodium acetate and resolved on polyethyleneimine-cellulose plates by thin-layer chromatography (TLC) in 3 M NH4 (SO4)2 and 2% EDTA. Radioactive counts were identified by phosphorimaging and products quantified as fractions of total ATP added. The quantitation of product was normalized to take into account the fact that each Ap4A molecule has two equivalents of radioactive phosphorus.

For assay [4], the system named is human TARS. Nature of the assay: Ap4G formation assay. Format: biochemical. The conditions noted are these: 2 mM ATP, 2 mM threonine, 2 mM GTP.
Assay [5] relates to human TARS. Nature of the assay: GTPase assay (GTP hydrolysis). The format is biochemical. The settings on record: 2 mM GTP.

Substitutions are numbered along the chain they refer to. In names and notes the source's numbering stands. Entries after “also recorded” stand apart in the source; their conditions may differ.

Turning to TNF-α, the “TARS mRNA / transcription” value in the assay on HUVECs is listed as “neither VEGF nor TNF-α induced an increase; also recorded: do not induce TARS transcription”.

With VEGF, the “TARS mRNA / transcription” value in the assay with HUVECs is on record as “neither VEGF nor TNF-α induced an increase; also recorded: do not induce TARS transcription”.

B1: L567V TARS: BC194-resistant (borrelidin-resistant) L567V mutant of human TARS (protein, UniProt P26639 1-723, looked up, variant L567V)
Threonine--tRNA ligase 1, …: MFEEKASSPSGKMGGEEKPIGAGEEKQKEGGKKKNKEGSGDGGRAELNPWPEYIYTRLEMYNILKAEHDSILAEKAEKDSKPIKVTLPDGKQVDAESWKTTPYQIACGISQGLADNTVIAKVNNVVWDLDRPLEEDCTLELLKFEDEEAQAVYWHSSAHIMGEAMERVYGGCLCYGPPIENGFYYDMYLEEGGVSSNDFSSLEALCKKIIKEKQAFERLEVKKETLLAMFKYNKFKCRILNEKVNTPTTTVYRCGPLIDLCRGPHVRHTGKIKALKIHKNSSTYWEGKADMETLQRIYGISFPDPKMLKEWEKFQEEAKNRDHRKIGRDQELYFFHELSPGSCFFLPKGAYIYNALIEFIRSEYRKRGFQEVVTPNIFNSRLWMTSGHWQHYSENMFSFEVEKELFALKPMNCPGHCLMFDHRPRSWRELPLRLADFGVLHRNELSGALTGLTRVRRFQQDDAHIFCAMEQIEDEIKGCLDFLRTVYSVFGFSFKLNLSTRPEKFLGDIEVWDQAEKQLENSLNEFGEKWELNSGDGAFYGPKIDIQIKDAIGRYHQCATIQLDFQVPIRFNLTYVSHDGDDKKRPVIVHRAILGSVERMIAILTENYGGKWPFWLSPRQVMVVPVGPTCDEYAQKVRQQFHDAKFMADIDLDPGCTLNKKIRNAQLAQYNFILVVGEKEKISGTVNIRTRDNKVHGERTISETIERLQQLKEFRSKQAEEEF
As for B1, the “sensitivity of protein-stimulated CAM vessel formation to BC194” value in assay [1] (protein applied together with BC194) is “not inhibited by application of BC194”. Moreover, the “vessel formation / vascularization on the CAM after applied protein” value in assay [1] was “stimulated vessel formation”. The “aminoacylation activity of the protein” value in the assay with human TARS [2] was “activity is not compromised”.

B2: R442A TARS: aminoacylation-deficient mutant of hTARS, active site Arg442 substituted with alanine (protein, UniProt P26639 1-723, looked up, variant R442A)
Threonine--tRNA ligase 1, …: B1 Threonine--tRNA ligase 1, … with R442A, V567L
Consider B2, for which, in assay [1], the “vessel formation / vascularization on the CAM after applied protein” value was “virtually indistinguishable from wild type”. Also, in the assay on human TARS [2], the “aminoacylation activity of the protein” value is reported as “essentially no aminoacylation activity; also recorded: virtually negligible aminoacylation function”. For the same molecule, in the assay with human TARS [3], the “production of Ap4A” value is on record as “no appreciable activity; also recorded: blocked”. Further, the “rate of Ap4G formation” value with human TARS [4] is reported as “not catalyzed; also recorded: blocked”. The molecule also registered a GTP hydrolysis in the assay with human TARS [5] of 0.2137 GDP/active site/min.

B3: E. coli ThrRS: bacterial (E. coli) threonyl-tRNA synthetase (protein, UniProt P0A8M3 1-642, looked up)
Threonine--tRNA ligase: MPVITLPDGSQRHYDHAVSPMDVALDIGPGLAKACIAGRVNGELVDACDLIENDAQLSIITAKDEEGLEIIRHSCAHLLGHAIKQLWPHTKMAIGPVIDNGFYYDVDLDRTLTQEDVEALEKRMHELAEKNYDVIKKKVSWHEARETFANRGESYKVSILDENIAHDDKPGLYFHEEYVDMCRGPHVPNMRFCHHFKLMKTAGAYWRGDSNNKMLQRIYGTAWADKKALNAYLQRLEEAAKRDHRKIGKQLDLYHMQEEAPGMVFWHNDGWTIFRELEVFVRSKLKEYQYQEVKGPFMMDRVLWEKTGHWDNYKDAMFTTSSENREYCIKPMNCPGHVQIFNQGLKSYRDLPLRMAEFGSCHRNEPSGSLHGLMRVRGFTQDDAHIFCTEEQIRDEVNGCIRLVYDMYSTFGFEKIVVKLSTRPEKRIGSDEMWDRAEADLAVALEENNIPFEYQLGEGAFYGPKIEFTLYDCLDRAWQCGTVQLDFSLPSRLSASYVGEDNERKVPVMIHRAILGSMERFIGILTEEFAGFFPTWLAPVQVVIMNITDSQSEYVNELTQKLSNAGIRVKADLRNEKIGFKIREHTLRRVPYMLVCGDKEVESGKVAVRTRRGKDLGSMDVNEVIEKLQQEIRSRSLKQLEE
For B3, the “production of Ap4A” value in the assay with human TARS [3] is reported as 0.5612 Ap4A/active site/min. For the same molecule, in the assay on human TARS [4], the “rate of Ap4G formation” value stood at 0.5612 Ap4G/active site/min. The GTP hydrolysis entry with human TARS [5] was “not”.

The values above are taken from patent publication US11225653B2, “Methods and compounds for reducing threonyl-tRNA synthetase activity” (University of Vermont and State Agricultural College, priority 2012, dated 2022).
